Legend:
α6β1 integrin [1] = target: α6β1 integrin (UniProt P23229); test: solid-phase integrin binding assay: 511E8 coated on plate, 10 nM α6β1 integrin, A490
α6β1 integrin [2] = target: α6β1 integrin (UniProt P23229); test: solid-phase integrin binding assay: 521E8 coated on plate, 10 nM α6β1 integrin, A490

Sequence of UniProt P23229 (P23229 other isoform, or with tags, fused parts or gaps limits assumed, chain 1 of 2): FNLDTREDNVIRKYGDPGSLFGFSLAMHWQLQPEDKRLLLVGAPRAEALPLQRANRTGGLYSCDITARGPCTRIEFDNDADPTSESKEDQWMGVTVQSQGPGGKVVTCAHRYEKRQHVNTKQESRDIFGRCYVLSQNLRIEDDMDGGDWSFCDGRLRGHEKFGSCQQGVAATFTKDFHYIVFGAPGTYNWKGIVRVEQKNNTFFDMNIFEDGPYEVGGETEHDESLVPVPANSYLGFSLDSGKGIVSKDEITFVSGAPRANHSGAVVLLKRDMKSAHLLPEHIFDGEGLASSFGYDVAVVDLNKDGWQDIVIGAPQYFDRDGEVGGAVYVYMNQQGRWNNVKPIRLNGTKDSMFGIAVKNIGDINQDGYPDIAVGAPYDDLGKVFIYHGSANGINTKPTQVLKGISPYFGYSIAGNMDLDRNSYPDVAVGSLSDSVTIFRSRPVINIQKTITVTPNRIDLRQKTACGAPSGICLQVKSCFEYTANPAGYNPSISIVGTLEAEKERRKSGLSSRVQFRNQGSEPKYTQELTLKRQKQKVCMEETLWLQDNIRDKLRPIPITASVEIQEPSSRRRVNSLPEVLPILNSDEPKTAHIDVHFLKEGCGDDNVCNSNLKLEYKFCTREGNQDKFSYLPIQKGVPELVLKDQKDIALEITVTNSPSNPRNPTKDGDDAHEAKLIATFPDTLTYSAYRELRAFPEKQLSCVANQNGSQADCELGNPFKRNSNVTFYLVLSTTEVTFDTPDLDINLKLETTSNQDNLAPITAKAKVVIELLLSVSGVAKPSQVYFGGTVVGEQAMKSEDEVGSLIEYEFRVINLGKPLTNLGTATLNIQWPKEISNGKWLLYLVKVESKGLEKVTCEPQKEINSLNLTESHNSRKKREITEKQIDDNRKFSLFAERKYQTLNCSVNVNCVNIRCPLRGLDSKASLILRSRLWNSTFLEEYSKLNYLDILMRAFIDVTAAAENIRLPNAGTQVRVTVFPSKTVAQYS
Sequence of UniProt P23229 (P05556 21-728 limits assumed, chain 2 of 2, further chain): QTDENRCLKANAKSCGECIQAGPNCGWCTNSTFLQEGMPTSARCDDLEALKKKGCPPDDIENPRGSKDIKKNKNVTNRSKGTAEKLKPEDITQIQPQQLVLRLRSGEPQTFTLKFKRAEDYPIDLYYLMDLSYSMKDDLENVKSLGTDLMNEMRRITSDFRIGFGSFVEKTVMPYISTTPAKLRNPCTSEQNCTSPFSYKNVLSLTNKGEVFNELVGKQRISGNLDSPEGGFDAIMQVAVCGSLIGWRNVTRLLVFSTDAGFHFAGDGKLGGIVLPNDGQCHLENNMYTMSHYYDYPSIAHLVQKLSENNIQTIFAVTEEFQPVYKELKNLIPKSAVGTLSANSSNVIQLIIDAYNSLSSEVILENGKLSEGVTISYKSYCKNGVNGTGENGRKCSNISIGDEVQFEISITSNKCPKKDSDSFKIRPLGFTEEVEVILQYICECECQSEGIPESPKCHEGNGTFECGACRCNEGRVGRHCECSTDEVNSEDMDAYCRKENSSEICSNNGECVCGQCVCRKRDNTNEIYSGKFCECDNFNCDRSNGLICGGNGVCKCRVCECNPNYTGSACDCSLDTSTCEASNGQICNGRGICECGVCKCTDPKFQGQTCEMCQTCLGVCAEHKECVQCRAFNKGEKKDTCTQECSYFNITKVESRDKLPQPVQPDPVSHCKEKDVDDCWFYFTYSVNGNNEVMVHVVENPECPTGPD

Substance | fold increase in integrin binding activity by addition of gelatin (500 µg/mL by context) to the coating solution, against 511E8 coated alone, at 2.7 nM 511E8 (α6β1 integrin [1]) [fold] | increase in integrin binding activity by addition of 50 µg/mL HSA to the coating solution, against 511E8 coated alone (α6β1 integrin [1]) [%] | increase in integrin binding activity by addition of 50 µg/mL gelatin to the coating solution, against 511E8 coated alone (α6β1 integrin [1]) [%] | increase in integrin binding activity by addition of HSA (500 µg/mL by context) to the coating solution, against 511E8 coated alone, at 2.7 nM 511E8 (α6β1 integrin [1]) [%] | increase in integrin binding activity by addition of 50 µg/mL HSA to the coating solution, against 521E8 coated alone (α6β1 integrin [2]) [%] | increase in integrin binding activity by addition of 50 µg/mL gelatin to the coating solution, against 521E8 coated alone (α6β1 integrin [2]) [%] | increase in integrin binding activity by addition of 500 µg/mL HSA to the coating solution, against 521E8 coated alone, at 2.7 nM 521E8 (α6β1 integrin [2]) [%] | increase in integrin binding activity by addition of gelatin (500 µg/mL by context) to the coating solution, against 521E8 coated alone, at 2.7 nM 521E8 (α6β1 integrin [2]) [%]
Human recombinant laminin 511E8 (from UniProt O15230 2534-3327; P07942 1561-1786; P11047 1362-1608) (ligand) | > 2 | 10 | 20 to 60 | > 80 |  |  |  | 
Human recombinant laminin 521E8 (from UniProt O15230 2534-3327; P55268 1573-1798; P11047 1362-1608) (ligand) |  |  |  |  | 10 to 20 | 10 to 60 | > 60 | > 80
